Earlier results, collected in article PMC7300301.

Biological target: FcRn (Homo sapiens) (UniProt P55899)
Sequence (P55899 24-297, chain 1 of 2): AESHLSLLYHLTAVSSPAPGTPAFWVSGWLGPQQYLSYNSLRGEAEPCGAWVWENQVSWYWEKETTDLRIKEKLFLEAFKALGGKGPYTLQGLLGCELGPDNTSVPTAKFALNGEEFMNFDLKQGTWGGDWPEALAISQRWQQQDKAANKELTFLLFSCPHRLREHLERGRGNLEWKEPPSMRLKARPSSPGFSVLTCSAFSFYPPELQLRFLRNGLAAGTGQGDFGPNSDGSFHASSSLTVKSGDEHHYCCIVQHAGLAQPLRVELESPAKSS
Sequence (partner, as listed by the source, chain 2 of 2): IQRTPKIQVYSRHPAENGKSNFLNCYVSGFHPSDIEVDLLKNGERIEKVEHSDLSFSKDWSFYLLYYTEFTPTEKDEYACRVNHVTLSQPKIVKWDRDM

palivizumab
Kd: 750 nM
